Results: US9029508 (dated 2015)
Where “and” joins values, the source holds several entries; their conditions need not be identical. Identical values can stand only once. Like-named read-outs stand apart in the source and are kept apart here.

How the values were obtained:
[1] = target: T1, IGF1 (human, UniProt P05019); test: SPR
[2] = target: T2, IGF2 (human, UniProt P01344); test: SPR
[3] = target: T1, IGF1; test: ELISA
[4] = target: T2, IGF2; test: ELISA
[5] = target: T2, IGF2; test: ELISA; remark: listed apart in the source
[6] = target: T1, IGF1; test: ELISA; remark: listed apart in the source
[7] = target: CD40 (human, UniProt P25942); test: ELISA
CD40, sequence (P25942 21-193): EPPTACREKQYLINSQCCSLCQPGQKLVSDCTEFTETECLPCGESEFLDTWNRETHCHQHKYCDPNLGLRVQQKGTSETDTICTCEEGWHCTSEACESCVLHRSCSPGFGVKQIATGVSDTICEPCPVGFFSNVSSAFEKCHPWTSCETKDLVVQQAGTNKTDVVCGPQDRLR

[8] = target: T3, IGF1R (human, UniProt P08069); test: SPR
[9] = target: T3, IGF1R; test: ELISA
[10] = target: T3, IGF1R; test: ELISA; remark: listed apart in the source
[11] = target: T4, ErbB3 (human, UniProt P21860); test: SPR
[12] = target: T4, ErbB3; test: ELISA
[13] = target: T4, ErbB3; test: ELISA; remark: listed apart in the source
[14] = target: T5, CD19 (human, UniProt P15391); test: ELISA
T5 chain: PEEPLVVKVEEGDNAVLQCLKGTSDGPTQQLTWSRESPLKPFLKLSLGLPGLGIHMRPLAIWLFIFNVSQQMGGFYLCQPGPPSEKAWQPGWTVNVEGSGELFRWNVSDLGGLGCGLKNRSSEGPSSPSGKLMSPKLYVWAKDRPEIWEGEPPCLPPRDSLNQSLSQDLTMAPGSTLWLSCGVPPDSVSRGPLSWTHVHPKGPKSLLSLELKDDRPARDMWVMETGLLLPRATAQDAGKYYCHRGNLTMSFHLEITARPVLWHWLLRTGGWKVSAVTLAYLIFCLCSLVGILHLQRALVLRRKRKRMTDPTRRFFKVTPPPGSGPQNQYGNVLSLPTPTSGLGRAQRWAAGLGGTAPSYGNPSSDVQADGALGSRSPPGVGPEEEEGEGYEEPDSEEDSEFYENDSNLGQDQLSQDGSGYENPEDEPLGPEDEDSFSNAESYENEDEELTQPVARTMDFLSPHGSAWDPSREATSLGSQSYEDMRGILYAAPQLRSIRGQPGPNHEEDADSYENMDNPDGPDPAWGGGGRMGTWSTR

[15] = target: T6, DLL4 (human, UniProt Q9NR61); test: SPR
T6 sequence (Q9NR61 27-524): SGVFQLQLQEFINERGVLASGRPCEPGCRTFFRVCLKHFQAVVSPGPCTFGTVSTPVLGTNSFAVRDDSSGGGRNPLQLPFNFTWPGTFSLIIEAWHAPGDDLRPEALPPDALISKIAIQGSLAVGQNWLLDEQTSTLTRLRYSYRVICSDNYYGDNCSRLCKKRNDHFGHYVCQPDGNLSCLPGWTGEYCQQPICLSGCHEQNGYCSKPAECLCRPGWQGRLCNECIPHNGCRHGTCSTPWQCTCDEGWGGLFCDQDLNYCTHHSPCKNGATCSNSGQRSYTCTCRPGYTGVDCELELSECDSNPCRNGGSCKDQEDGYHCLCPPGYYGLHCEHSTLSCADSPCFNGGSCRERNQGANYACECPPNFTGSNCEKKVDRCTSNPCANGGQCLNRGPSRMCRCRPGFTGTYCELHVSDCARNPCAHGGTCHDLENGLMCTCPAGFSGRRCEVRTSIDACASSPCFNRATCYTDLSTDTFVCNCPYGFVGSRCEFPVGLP

[16] = target: T6, DLL4; test: ELISA
[17] = target: T6, DLL4; test: competition

B1: AB010 (antibody, V domains shown)
VH: QVQLVQSGAEVKKPGASVKVSCKASGYTFTSYDINWVRQATGQGLEWMGWMNPNSGNTGYAQKFQGRVTMTRNTSISTAYMELSSLRSEDTAVYYCARDPYYYYYGMDVWGQGTTVTVSS
VL: QSVLTQPPSVSAAPGQKVTISCSGSSSNIENNHVSWYQQLPGTAPKLLIYDNNKRPSGIPDRFSGSKSGTSATLGITGLQTGDEADYYCETWDTSLSAGRVFGGGTKLTVLG
Kd [1]: 0.388 nM | Kd [2]: < 0.000299 nM and 0.000423 nM | EC50 [3]: 4.77 nM | EC50 [4]: 10 nM and 18.1 nM | EC50 [5]: 18.1 nM and 10 nM | EC50 [6]: 4.8 nM

B2: DVD010 CD40 arm (antibody, V domains shown)
VH: QVQLVESGGGVVQPGRSLRLSCAASGFTFSSYGMHWVRQAPGKGLEWVAVISYEESNRYHADSVKGRFTISRDNSKITLYLQMNSLRTEDTAVYYCARDGGIAAPGPDYWGQGTLVTVSS
VL: DIVMTQSPLSLTVTPGEPASISCRSSQSLLYSNGYNYLDWYLQKPGQSPQVLISLGSNRASGVPDRFSGSGSGTDFTLKISRVEAEDVGVYYCMQARQTPFTFGPGTKVDIRR
modifications: DVD-Ig outer
EC50 [7]: 0.82 nM

B3: AB011 (antibody, V domains shown)
VH: EVQLLESGGGLVQPGGSLRLSCTASGFTFSSYAMNWVRQAPGKGLEWVSAISGSGGTTFYADSVKGRFTISRDNSRTTLYLQMNSLRAEDTAVYYCAKDLGWSDSYYYYYGMDVWGQGTTVTVSS
VL: DIQMTQFPSSLSASVGDRVTITCRASQGIRNDLGWYQQKPGKAPKRLIYAASRLHRGVPSRFSGSGSGTEFTLTISSLQPEDFATYYCLQHNSYPCSFGQGTKLEIKR
Kd [8]: 0.848 nM | EC50 [9]: 0.28 nM | EC50 [10]: 0.3 nM

B4: DVD022 IGF1R arm (antibody, V domains shown)
VH: EVQLLESGGGLVQPGGSLRLSCTASGFTFSSYAMNWVRQAPGKGLEWVSAISGSGGTTFYADSVKGRFTISRDNSRTTLYLQMNSLRAEDTAVYYCAKDLGWSDSYYYYYGMDVWGQGTTVTVSS
VL: DIQMTQFPSSLSASVGDRVTITCRASQGIRNDLGWYQQKPGKAPKRLIYAASRLHRGVPSRFSGSGSGTEFTLTISSLQPEDFATYYCLQHNSYPCSFGQGTKLEIKR
modifications: DVD-Ig outer
Kd [8]: 0.778 nM | EC50 [9]: 0.26 nM | EC50 [10]: 0.3 nM

B5: AB062 (antibody, V domains shown)
VH: QVQLQQWGAGLLKPSETLSLTCAVYGGSFSGYYWSWIRQPPGKGLEWIGEINHSGSTNYNPSLKSRVTISVETSKNQFSLKLSSVTAADTAVYYCARDKWTWYFDLWGRGTLVTVSS
VL: not shown
Kd [11]: 1.36 nM | EC50 [12]: 0.26 nM | EC50 [13]: 1.93 nM

B6: DVD002 CD19 arm (antibody, V domains shown)
VH: QVQLQQSGAELVRPGSSVKISCKASGYAFSSYWMNWVKQRPGQGLEWIGQIWPGDGDTNYNGKFKGKATLTADESSSTAYMQLSSLASEDSAVYFCARRETTTVGRYYYAMDYWGQGTSVTVSS
VL: DILLTQTPASLAVSLGQRATISCKASQSVDYDGDSYLNWYQQIPGQPPKLLIYDASNLVSGIPPRFSGSGSGTDFTLNIHPVEKVDAATYHCQQSTEDPWTFGGGTKLEIKR
modifications: DVD-Ig outer
EC50 [14]: 0.07 nM

B7: AB063 (antibody, V domains shown)
VH: EVQLVESGGGLVQPGGSLRLSCAASGFTFSIYSMNWVRQAPGKGLEWVSYISSSSSTIYYADSVKGRFTISRDNAKNSLYLQMNSLRDEDTAVYYCARDRGDFDAFDIWGQGTMVTVSS
VL: DIQMTQSPSSLSASVGDRVTITCQASQDITNYLNWYQQKPGKAPKLLIYDASNLETGVPSRFSGSGSGTDFTFTISSLQPEDIATYNCQQCENFPITFGQGTRLEIKR
Kd [11]: 0.15 nM | EC50 [12]: 0.67 nM | EC50 [13]: 0.28 nM

B8: DVD014 CD19 arm (antibody, V domains shown)
VH: QVQLQQSGAELVRPGSSVKISCKASGYAFSSYWMNWVKQRPGQGLEWIGQIWPGDGDTNYNGKFKGKATLTADESSSTAYMQLSSLASEDSAVYFCARRETTTVGRYYYAMDYWGQGTSVTVSS
VL: DILLTQTPASLAVSLGQRATISCKASQSVDYDGDSYLNWYQQIPGQPPKLLIYDASNLVSGIPPRFSGSGSGTDFTLNIHPVEKVDAATYHCQQSTEDPWTFGGGTKLEIKR
modifications: DVD-Ig outer
EC50 [14]: 0.12 nM

B9: DVD257 DLL4 arm (antibody)
chain 1: EVQLVESGGGLVQPGGSLRLSCAASGFTFTDNWISWVRQAPGKGLEWVGYISPNSGFTYYADSVKGRFTISADTSKNTAYLQMNSLRAEDTAVYYCARDNFGGYFDYWGQGTLVTVSS
chain 2: DIQMTQSPSSLSASVGDRVTITCRASQDVSTAVAWYQQKPGKAPKLLIYSASFLYSGVPSRFSGSGSGTDFTLTISSLQPEDFATTYYCQQSYTGTVTFGQGTKVEIKR
modifications: DVD-Ig outer
Kd [15]: 0.234 nM | EC50 [16]: 0.28 nM | IC50 [17]: 0.38 nM

B10: DVD305 ErbB3 arm (antibody, V domains shown)
VH: EVQLVESGGGLVQPGGSLRLSCAASGFTFSIYSMNWVRQAPGKGLEWVSYISSSSSTIYYADSVKGRFTISRDNAKNSLYLQMNSLRDEDTAVYYCARDRGDFDAFDIWGQGTMVTVSS
VL: DIQMTQSPSSLSASVGDRVTITCQASQDITNYLNWYQQKPGKAPKLLIYDASNLETGVPSRFSGSGSGTDFTFTISSLQPEDIATYNCQQCENFPITFGQGTRLEIKR
modifications: DVD-Ig outer
Kd [11]: 0.0603 nM | EC50 [12]: 1.16 nM | EC50 [13]: 0.44 nM

B11: DVD001 CD19 arm (antibody, V domains shown)
VH: QVQLQQSGAELVRPGSSVKISCKASGYAFSSYWMNWVKQRPGQGLEWIGQIWPGDGDTNYNGKFKGKATLTADESSSTAYMQLSSLASEDSAVYFCARRETTTVGRYYYAMDYWGQGTSVTVSS
VL: DILLTQTPASLAVSLGQRATISCKASQSVDYDGDSYLNWYQQIPGQPPKLLIYDASNLVSGIPPRFSGSGSGTDFTLNIHPVEKVDAATYHCQQSTEDPWTFGGGTKLEIKR
modifications: DVD-Ig inner
EC50 [14]: 12.9 nM

B12: DVD306 ErbB3 arm (antibody, V domains shown)
VH: EVQLVESGGGLVQPGGSLRLSCAASGFTFSIYSMNWVRQAPGKGLEWVSYISSSSSTIYYADSVKGRFTISRDNAKNSLYLQMNSLRDEDTAVYYCARDRGDFDAFDIWGQGTMVTVSS
VL: DIQMTQSPSSLSASVGDRVTITCQASQDITNYLNWYQQKPGKAPKLLIYDASNLETGVPSRFSGSGSGTDFTFTISSLQPEDIATYNCQQCENFPITFGQGTRLEIKR
modifications: DVD-Ig inner
EC50 [12]: > 10 nM | EC50 [13]: 151 nM

B13: DVD032 IGF1R arm (antibody, V domains shown)
VH: EVQLLESGGGLVQPGGSLRLSCTASGFTFSSYAMNWVRQAPGKGLEWVSAISGSGGTTFYADSVKGRFTISRDNSRTTLYLQMNSLRAEDTAVYYCAKDLGWSDSYYYYYGMDVWGQGTTVTVSS
VL: DIQMTQFPSSLSASVGDRVTITCRASQGIRNDLGWYQQKPGKAPKRLIYAASRLHRGVPSRFSGSGSGTEFTLTISSLQPEDFATYYCLQHNSYPCSFGQGTKLEIKR
modifications: DVD-Ig outer
Kd [8]: 0.829 nM | EC50 [9]: 0.16 nM | EC50 [10]: 0.2 nM

B14: DVD013 CD19 arm (antibody, V domains shown)
VH: QVQLQQSGAELVRPGSSVKISCKASGYAFSSYWMNWVKQRPGQGLEWIGQIWPGDGDTNYNGKFKGKATLTADESSSTAYMQLSSLASEDSAVYFCARRETTTVGRYYYAMDYWGQGTSVTVSS
VL: DILLTQTPASLAVSLGQRATISCKASQSVDYDGDSYLNWYQQIPGQPPKLLIYDASNLVSGIPPRFSGSGSGTDFTLNIHPVEKVDAATYHCQQSTEDPWTFGGGTKLEIKR
modifications: DVD-Ig inner
EC50 [14]: 7.29 nM

B15: DVD009 CD40 arm (antibody, V domains shown)
VH: QVQLVESGGGVVQPGRSLRLSCAASGFTFSSYGMHWVRQAPGKGLEWVAVISYEESNRYHADSVKGRFTISRDNSKITLYLQMNSLRTEDTAVYYCARDGGIAAPGPDYWGQGTLVTVSS
VL: DIVMTQSPLSLTVTPGEPASISCRSSQSLLYSNGYNYLDWYLQKPGQSPQVLISLGSNRASGVPDRFSGSGSGTDFTLKISRVEAEDVGVYYCMQARQTPFTFGPGTKVDIRR
modifications: DVD-Ig inner
EC50 [7]: 3.55 nM

B16: AB009 (antibody, V domains shown)
VH: QVQLVESGGGVVQPGRSLRLSCAASGFTFSSYGMHWVRQAPGKGLEWVAVISYEESNRYHADSVKGRFTISRDNSKITLYLQMNSLRTEDTAVYYCARDGGIAAPGPDYWGQGTLVTVSS
VL: DIVMTQSPLSLTVTPGEPASISCRSSQSLLYSNGYNYLDWYLQKPGQSPQVLISLGSNRASGVPDRFSGSGSGTDFTLKISRVEAEDVGVYYCMQARQTPFTFGPGTKVDIRR
EC50 [7]: 0.99 nM
